Assay: soluble fraction after stress (log2 fold change); higher = more stays soluble; pooled small domains, quantitative proteomics
Details: stress: 50 degC
Method in brief: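 After stress at 50°C, the amount of each protein still soluble was measured. This was done on pooled custom libraries of small protein domains, using high-throughput quantitative proteomics. The figure given is a base-two log fold change and stands for aggregation propensity, with higher values meaning more protein stays in solution.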
In the case of “HMKTILEKDQRLAKYISYLIKRKRLSPEQVIEHLKTDDHGYEKYPKSINTIYAAIDKGLIPSVTRQDM”, the “soluble fraction (log2)” value is reported as -0.0163. With “HMKTKMTPELTTVIEAQIQKEWSPEQISGWLKKTHPVSVSHQRIYQHIQADRQQGGTLHQHLRQAK” the “soluble fraction (log2)” value was 0.163. With “HMKTKTFSPGEIVKIQTRDKSWQGTILESHDPEIILLKLTTGYNIGIRENEIINAKVIEKSKKDVKDAE” the “soluble fraction (log2)” value was 0.183. For “HMKTKTIMSTGAREDLVKMINEYYYSKNYIITEDNRIYNTKTEKFMDDLSVKFYRGRWKVIRN”, the “soluble fraction (log2)” value was -0.813. With “HMKTLDATQRLKLNGEGIIVFNFGKYVDQPVVEIFKKERGYFAWMMSKDFSQQVKNIITKIHNEEILGK” the “soluble fraction (log2)” value was -2.76. In the case of “HMKTLKHYFASIAHEFGREEAELMLLSVFKTPFEQRLMLFMKDPALTEAQVQQLDNLVRQRKQGVPLPYIL”, the “soluble fraction (log2)” value is reported as -0.22. For “HMKTLPADPTVKNFSYTVVDGEIYYRENSIMTQIELSDNAKGRVAGMVELRQIVNELIDQQLND”, the “soluble fraction (log2)” value was -0.896. With “HMKTMEQSYIGRKIILDENVEDSALIKFEGIYWTFKSVSGPLKKGTEVEIIGIEGNKILIKNK” the “soluble fraction (log2)” value was -0.198. For “HMKTPIEFGSVYNDPVRYVIGMSIKSAESINQAIYDMMKIFGDENNMNKFDSLPDEQAVLDMVNSF”, the “soluble fraction (log2)” value was 0.0157. In the case of “HMKTRIQDLRKELGVTQSELADAVDVTRQTIISLEGGRYKASLVLAHKLAQFFHVTIEELFIFD”, the “soluble fraction (log2)” value is reported as -2.21. In the case of “HMKTRNISGNHEAVWQAVRSRTQAGHPTTRAVIMDDLKAQGLNTQKFSRWLKKLVDDGSVYMDGDTIIMGK”, the “soluble fraction (log2)” value is reported as -0.186. In the case of “HMKTRTVVLKSAGGNKIAVIKIIKEITGLGLVEAKAVADNGGNIKENIPAEEAEAIKTQLTEAGAEVEL”, the “soluble fraction (log2)” value is reported as -0.192. With “HMKTRYPNVYQDEKGKFFYQIFIGTDTNGRKKLKKGRRDALGHPFSSAYQASKEAKRVQALYANVS” the “soluble fraction (log2)” value was -1.23. With “HMKTSTGSAMYLTLDLAEKYAGQAFTLVHKKADGTFEYLYATADVDGKVKFGPVYELSPFMLVKGQL” the “soluble fraction (log2)” value was -0.291. In the case of “HMKTSVGSKMMVMANNLSIRKSANLLSEKLADLSKGDMVEYISSTNGWNKVRYNGYVGYVSSYYLKDTGEV”, the “soluble fraction (log2)” value is reported as -0.738. In the case of “HMKTTKDSVFEYIQKELMTNEEYKQGINTNVIAQHFGLQRSNISTILNELVKEDRLEKTNTRPVLYFLPQ”, the “soluble fraction (log2)” value is reported as -0.0929. With “HMKTTKRERARAKLIQLLENEDRPAKEIYAGLGDIGVGSRTVEKVKKELQVTTYRSGGSWYWSLPKP” the “soluble fraction (log2)” value was -0.169. With “HMKTVKPSQIPYSEFLKLVETDKINDVSMVGRNIIGHLDDGSKFKTYTPPNDPTLIEKLSSHNIVINAAPE” the “soluble fraction (log2)” value was 0.149. For “HMKTVLDSLLRILDSKELDIVVLRHIVGLTLTEIAKEKDMKKGTVFWMYNRAVKKLRLESERMGL”, the “soluble fraction (log2)” value was -2.11. In the case of “HMKTVPNVEGEKDGTAQSAIESAGLKVGKVTYQYDDNTSKGLVISQSVKGGEKVKPNTAIDLVVSNGPK”, the “soluble fraction (log2)” value is reported as 0.0173. In the case of “HMKTYSEAQLKIALESLIENGKKQGYLTFQEINEILPDGIINTQDLKVIISILKETGIVVAKEKPEINIDV”, the “soluble fraction (log2)” value is reported as 0.0784. With “HMKVEFTPAYLKKFKANKNAWKFYEAQTNTYKKQSAWYVISAKQEETRLRRLDLLIYDSENGIHIKPLRR” the “soluble fraction (log2)” value was -2.6. In the case of “HMKVFTEDEMLEKIKEYLSTNSYINRRVMETQFGLRQNIALKWLKHFTEIGVLRKEGERNSPIYFLNN”, the “soluble fraction (log2)” value is reported as ≥ 0.62. In the case of “HMKVKIFNGMKLVTNSTGLTVDGKPAALDESNADAKTYSQGLYVFIVYQSGKIAVMQDGKFLGYA”, the “soluble fraction (log2)” value is reported as -1.77. For “HMKVLNVLESEIVRLFKQGQQKDNIRDNIYKTHGQHYNNKKSFNVVFGRKWNSLLEQGFLES”, the “soluble fraction (log2)” value was -0.595. In the case of “HMKVRDTQYIIEAAISKNVIRKSKNIYYYGTDIIGRSLEDAIASLNDKKNQDIKMTILQEIES”, the “soluble fraction (log2)” value is reported as -0.493. With “HMKVSKNKIVKGMGFHHVALKAVDFDASFKFYTEGLGMKFYTSWGEGNGKIAMLDLGDGGILELFA” the “soluble fraction (log2)” value was 0.0801. With “HMKVTGITDDILQRLKQQKGYLMLSDKSSPDEIYAAFGVSKKVFKQAIGTLFKQRQIIIEEQGIRLAN” the “soluble fraction (log2)” value was -0.39. For “HMKVTQDIIFKRNGEEIKSKVLEITPDLIIYIDYSRADNIAREINISEVNMIIYKNGTSEIFSRPEE”, the “soluble fraction (log2)” value was 0.101. For “HMKVTTGIDGLIGEEGVALSDFSGKGKIMVHGEIWNAEFSGEVKKGEVLLVEKANGMTLITRKKN”, the “soluble fraction (log2)” value was 0.561. With “HMKYKWLAGQLRRELLENGGKKGYKLPTELELARRYQLSRQTVRRALQLLEEEGLILRRQGSGAYATGKPP” the “soluble fraction (log2)” value was -0.316. In the case of “HMKYLREEDYLPIGSIIRLDDRNFRVDHVNFMFKSVSLQDMDLTNSGQPIFRSESLPHIRELYEQQQNELV”, the “soluble fraction (log2)” value is reported as -1.19. For “HMKYYIYQGLGDSGELTKIAEVTDVKTYTATGLEANTKYRFAVSAYNGLRESSKSNIITVTT”, the “soluble fraction (log2)” value was 0.0324. For “HMLADIGGRIADLRREVGLTQGELAEKADISVVHLSNIELGKKTPGLSTLIRIAEALDVATDWILQA”, the “soluble fraction (log2)” value was -1.02. In the case of “HMLAFDKDDSGAVAEIILVLGRYWMDFSHKKYPAAEGVALRHKGLSHIFTVLRPYLSTPASELIGERLRR”, the “soluble fraction (log2)” value is reported as -0.409. For “HMLAGVDTLADRELEVFQMLGRGKSTKEIAQVLNLGESTVETYRARIKEKLQLRSAAELYLRAGQWVRDHG”, the “soluble fraction (log2)” value was -0.184. For “HMLAIKKGGIFAILGPNGSGKSTFSKVLAGHPAYTVVDGDIFFKGLSILDLEPEERSHLGIFLAFQ”, the “soluble fraction (log2)” value was -0.153. For “HMLAKRYLVYGSGSLNSAYPDTKNIAYGIDSGKGFFLVGILTENEASKLKLKGYYVIEDFPLDFH”, the “soluble fraction (log2)” value was -1.43. For “HMLAPLAEMRGDTLDRLEKAVLELFSSRDFHEVSLQDVARRANVSLQTIYKYFGSKEALVYTMLDTLLGR”, the “soluble fraction (log2)” value was -0.661. For “HMLAQVSDEGPIRAMVEAVMARSTQQLEDYKNGKVKLRQYFFGEVMKAAKGKANPTVINKLLDEMLPETL”, the “soluble fraction (log2)” value was 0.255. For “HMLAQYPGQVFSKEQIYNQVWKEPYYGVEDNVMSLIRRIRKKIEPDPSRPIYILTVWGIGYKFNN”, the “soluble fraction (log2)” value was -0.197. For “HMLARFSGIALNTWTQADVERTFGPPMLVERVARFDGDIWTYRFMDDYEPRMAHIHIDRAGTVRQLVF”, the “soluble fraction (log2)” value was -2.77. In the case of “HMLAVEKIEFVGNERIAAADLESALSALYDRPMTTISDDEIAKLLSGFSLIETFTSQAEPPHTLRVNIRE”, the “soluble fraction (log2)” value is reported as -0.141. In the case of “HMLDEKFLSELMLALLRNHRRGLRAEVLLHKVRSNMELDGYKSLLVGVGRMEMWELAREIIDFVKAEG”, the “soluble fraction (log2)” value is reported as -4.4. With “HMLDGFEVGMTVMRKPGTETGFTGWPPFADKDEFPVIERIDTSDSTLLLRFNDTSWWINASLVEPSDV” the “soluble fraction (log2)” value was -1.33. In the case of “HMLDIPEVGQAVQVRGRLGTVFSVAPYDGREGRLHLVTVDYLDDARPPENDEILWEIESGARILG”, the “soluble fraction (log2)” value is reported as -0.523. With “HMLDLNEVEFYAIENQLKENLKIDSKRFYELVPLIKGYQEDDIIQVLRWLIDNNRIIRHKDESLTWHS” the “soluble fraction (log2)” value was -1.61. In the case of “HMLDLSEEEQKIVSILEKQGNLQINSLVVEADIPVHKINAILFELEMKGVVRVLALSLIHISEP”, the “soluble fraction (log2)” value is reported as 0.0725. In the case of “HMLDPVLQREKDESFTDYHIRLFKNKDTYHIDTKTIATLLNKDQGTNYDESKWRKDFKQYERWNDYIMSKN”, the “soluble fraction (log2)” value is reported as 0.145. For “HMLDPYNVLGVPRDAGMDEIKKAYRKLSRTYHPDANIDNPNKAQAEEKFKQIQEAYQQIVKERTE”, the “soluble fraction (log2)” value was -0.384.

From the domain aggregation screens of Martell et al. (2025)
